B1: 18R5: human anti-FZD antibody; VH SEQ ID NO:10 (as 18R8), VL SEQ ID NO:14; binds FZD1, 2, 5, 7, 8 (antibody, V domains shown)
VH: EVQLVESGGGLVQPGGSLRLSCAASGFTFSHYTLSWVRQAPGKGLEWVSVISGDGSYTYYADSVKGRFTISSDNSKNTLYLQMNSLRAEDTAVYYCARNFIKYVFANWGQGTLVTVSS
VL: DIELTQPPSVSVAPGQTARISCSGDNIGSFYVHWYQQKPGQAPVLVIYDKSNRPSGIPERFSGSNSGNTATLTISGTQAEDEADYYCQSYANTLSLVFGGGTKLTVLG
modifications: 18R5/18R8 heavy chain variable region (VH); 18R5 light chain variable region (VL)
B2: 18R8: human anti-FZD antibody from phage display; VH SEQ ID NO:10, VL SEQ ID NO:12; binds FZD1, 2, 5, 7, 8 (antibody, V domains shown)
VH: B1 VH
VL: DIELTQPPSVSVAPGQTARISCSGDKLGKKYASWYQQKPGQAPVLVIYEKDNRPSGIPERFSGSNSGNTATLTISGTQAEDEADYYCSSFAGNSLEVFGGGTKLTVLG
modifications: 18R5/18R8 heavy chain variable region (VH); 18R8 light chain variable region (VL)

What was measured:
[1] = test system: OMP-LU24 human lung tumors; assay: OMP-LU24 lung tumor xenograft growth; type: in vivo, NOD-SCID mice; details: antibody 10 mg/kg IP once per week, Taxol 15 mg/kg IP once per week
Description: 50,000 OMP-LU24 human lung tumor cells were injected subcutaneously in NOD-SCID mice. Tumors were allowed to grow for 27 days until they reached an average volume of 143 mm^3. The animals were randomized into 4 groups (n=9 per group) and treated with either control antibody (“Control Ab”), anti-FZD 18R5 (“18R5”), Taxol® (“Taxol”) or the combination of 18R5 plus Taxol® (“18R5+Taxol”). Antibodies were dosed at 10 mg/kg intraperitoneal (IP), once per week and Taxol® was dosed at 15 mg/kg, IP, once per week.

[2] = test system: smooth muscle actin (SMA); assay: Smooth Muscle Actin alpha immunofluorescence on treated OMP-PN4 tumors; type: in vivo, NOD/SCID mice; details: 10 mg/kg once a week for 6 weeks; vs control mAb
Description: As described in Example 7 above, OMP-PN4 tumor-bearing NOD/SCID mice were treated with control Ab (LZ-1), 18R5, gemcitabine, or the combination of 18R5 and gemcitabine once a week for 6 weeks. The antibodies were administered at a concentration of 10 mg/kg. After they were harvested, the tumors from that experiment were analyzed for the expression of Wnt target genes at both the RNA and protein levels, using microarray and IHC, respectively.
In preparation for Smooth Muscle Actin alpha (SMAa) immunofluorescence, tumor tissue was frozen using OCT. 4 micron sections were obtained and stored frozen at −80° C. For SMAa staining, tissue was fixed using chilled acetone at −20° C. for 15 minutes and then allowed to dry and come to room temperature and then marked using a hydrophobic PAP pen. Slides were then washed using phosphate buffered saline (PBS). Tissue was blocked using normal horse serum R.T.U. (Vector Labs) for 2 hours at room temperature. Primary antibody staining was performed with 1:10,000 dilution of FITC-conjugated Smooth muscle actin alpha antibody (cline 1A4, #F3777, SIGMA) for 1 hour. Sections were washed 3 times using PBS containing 0.1% triton X-100. Slides were then air-dried and then mounted using Hard set mounting medium containing DAPI (vectashied H-500).

[3] = test system: OMP-PN13 cells; assay: Tumorgenic potential of Muc16-positive cells sorted from 18R5-treated OMP-PN13 tumors; type: in vivo, NOD/SCID mice; details: 75 cells per mouse, 10 mice; no tumor from Muc16+ cells, 7 of 10 from Muc16− cells
Description: OMP-PN13-bearing mice were treated with 18R5 according to the protocol described in Example 21. Mice were euthanized 12 days after initiation of the Ab treatment. Tumors were harvested and processed to obtain a single cell suspension using collagenase III to digest the tissues. Mouse stromal cells were stained with a biotinylated anti-H-2 Kd antibody and a biotinylated anti-CD45 antibody. They were then incubated with magnetic beads conjugated to streptavidin (Thermo MagnaBind) and depleted using a Dynal magnet. The resulting lin-depleted tumor cells were stained with an anti-Muc16 mAb detected with a PE-conjugated secondary Ab. Muc16− positive and Muc16− negative cells were sorted using an ARIA FACS machine ran by the DIVA software. Cells were re-injected subcutaneously in the left flank of NOD/SCID mice for comparison of their tumorgenic potentials. Each cell type was injected into 10 mice. Each mouse received 75 cells. Representative pictures of tumors resulting from the injection of Muc16− (upper panel) and Muc16+(lower panel) cells are shown in FIG. 52B. No tumor grew after injection of the Muc16+cells, while 7 of the 10 mice injected with the Muc16− cells developed tumors.

[4] = test system: OMP-Pn4 pancreatic tumor xenografts; assay: OMP-Pn4 pancreatic tumor xenograft growth; type: in vivo, NOD/SCID mice; details: 10 mg/kg IP once weekly
Description: In another embodiment, anti-FZD antibodies were analyzed for their ability to reduce the growth of OMP-Pn4 pancreatic tumor xenografts. NOD/SCID mice were purchased from Harlan (Indianapolis, Ind.) and allowed to acclimate for several days prior to the studies. The establishment and characterization of in vivo cancer stem cell-driven pancreas xenograft models were described previously (Li et al., Cancer Res., 67:1030-7, 2007). For efficacy studies, OMP-Pn4 human pancreatic tumor cells were dissociated into single cell suspensions, resuspended in 1:1 (v/v) mixture of FACS buffer (Hank's balanced salt solution [HBSS] supplemented with 2% heat-inactivated fetal bovine serum and 20 mM Hepes) and Matrigel (BD Bioscience, San Jose, Calif.) and implanted subcutaneously into the right flank region of 6-7 weeks old male NOD/SCID mice with a 25-gauge needle containing 50,000 cells/100 μL. Tumor growth was monitored weekly and tumor measurements were initiated once tumors were palpable. […] Tumor growth was measured by with an electronic caliper (Coast Tools Company, San Leandro, Calif.). Tumors were measured once a week and tumor volume was determined using the formula ½(a×b^2); where a=length (longest axis of the tumor), and b=breadth (shortest axis of the tumor). […] Data are expressed as mean±S.E.M. Differences in mean values between groups were analyzed by non-parimetric t test. […]

[5] = test system: Wnt signaling; assay: 8xTCF luciferase reporter assay in STF293 cells with Wnt-overexpressing HEK293 cells; type: cell-based, human; details: 20 μg/ml; Wnt1, Wnt2, Wnt3, Wnt7A, Wnt7B, Wnt10B, Wnt3A inhibited; 18 hours
Description: In further experiments, the ability of the 18R8 antibody to antagonize signaling by different Wnt ligands was determined. HEK 293 cells were transfected with Wntl, Wnt2, Wnt2b2, Wnt3, Wnt3a, Wnt7a, Wnt7b, Wnt8a, Wnt9b, and Wnt10b for forty eight hours by Fugene 6 (Roche). Wnt3A conditioned medium (“WNT3ACM”) was used as a positive control of activation. STF293 cells, were cultured in DMEM supplemented with antibiotics and 10% FCS and treated with 20 μg/ml 18R8 antibody or no antibody. The Wnt-overexpressing HEK293 cells were then added. Eighteen hours following treatment, luciferase levels were measured using a dual luciferase assay kit.

Row | Molecule | xenograft tumor growth [1] | Smooth Muscle Actin alpha (SMAa) amount [2] | tumorgenicity of 18R5-induced Muc16+ cells [3] | tumor growth, monotherapy [4] | inhibition of signaling by different Wnt ligands [5]
1 | B1 | inhibits OMP-LU24 xenograft tumor growth | Reduced amounts of SMAa | non-tumorgenic | did not result in a significant reduction in tumor growth | 
2 | B2 |  |  |  |  | inhibit signaling of a variety of Wnts
